Data taken from patent publication US20260151494A1 (ARO BIOTHERAPEUTICS, published 2026).
Numbering of substitutions follows the chain as printed.

B1: CD71-binding FN3 domain of SEQ ID NO: 507 (designed binder)
chain: MLPAPKNLVVSRVTEDSARLSWTAPDAAFDSFFIGYLEPQPPGEAIHLLVPGSERSYDLTGLKPGTEYNVTIQGVKGGFPSMPLSAIFTT
B2: CD71-binding FN3 domain of SEQ ID NO: 474 (designed binder)
chain: B1 chain with H47G, L49A, M82E, S85I, I87D
B3: CD71-binding FN3 domain of SEQ ID NO: 450 (designed binder)
chain: B1 chain with H47S, L49F, M82E, S85A, I87K
B4: CD71-binding FN3 domain of SEQ ID NO: 478 (designed binder)
chain: B1 chain with L49Y, M82V, S85I, I87K
B5: CD71-binding FN3 domain of SEQ ID NO: 465 (designed binder)
chain: B1 chain with H47D, L49Y, M82E, S85W, I87D
B6: CD71-binding FN3 domain of SEQ ID NO: 475 (designed binder)
chain: B1 chain with H47T, L49Y, M82I, I87E
B7: CD71-binding FN3 domain of SEQ ID NO: 449 (designed binder)
chain: MLPAPKNLVVSRVTEDSARLSWTAPDAAFDSFYIAYQELSLWGEAIVLTVPGSERSYDLTGLKPGTEYNVTIQGVKGGFPSLPLAAQFTT
B8: CD71-binding FN3 domain of SEQ ID NO: 453 (designed binder)
chain: B1 chain with P25Q, H47A, M82H, I87S
B9: CD71-binding FN3 domain of SEQ ID NO: 446 (designed binder)
chain: B1 chain with H47Q, L49F, M82L, S85I, I87Y
B10: CD71-binding FN3 domain of SEQ ID NO: 479 (designed binder)
chain: B1 chain with H47N, L49W, M82T, S85F, I87G
B11: CD71-binding FN3 domain of SEQ ID NO: 448 (designed binder)
chain: B1 chain with H47D, L49Y, S85Y, I87R
B12: CD71-binding FN3 domain of SEQ ID NO: 459 (designed binder)
chain: B1 chain with G35R, L49S, S85Y
B13: CD71-binding FN3 domain of SEQ ID NO: 473 (designed binder)
chain: B1 chain with H47D, L49W, M82L, I87S
B14: CD71-binding FN3 domain of SEQ ID NO: 460 (designed binder)
chain: B1 chain with H47S, L49Y, L59Q, M82D, I87R
B15: CD71-binding FN3 domain of SEQ ID NO: 452 (designed binder)
chain: B1 chain with L49Q, M82I, S85V, I87Q
B16: CD71-binding FN3 domain of SEQ ID NO: 454 (designed binder)
chain: B1 chain with H47N, L49T, M82Y, S85Q, I87S
B17: CD71-binding FN3 domain of SEQ ID NO: 456 (designed binder)
chain: B1 chain with H47A, L49Y, M82H, S85Q, I87H
B18: CD71-binding FN3 domain of SEQ ID NO: 461 (designed binder)
chain: B1 chain with H47G, L49F, A86P
B19: CD71-binding FN3 domain of SEQ ID NO: 470 (designed binder)
chain: B1 chain with H47T
B20: CD71-binding FN3 domain of SEQ ID NO: 467 (designed binder)
chain: B1 chain with H47Q, M82D, S85V, I87Y, F88S
B21: CD71-binding FN3 domain of SEQ ID NO: 481 (designed binder)
chain: B1 chain with H47T, L49Y, L59M, M82L, S85Q, I87H
B22: CD71-binding FN3 domain of SEQ ID NO: 457 (designed binder)
chain: B1 chain with H47V, M82A, S85V, I87T
B23: CD71-binding FN3 domain of SEQ ID NO: 476 (designed binder)
chain: B1 chain with L49Q, M82I, S85I, I87V
B24: CD71-binding FN3 domain of SEQ ID NO: 472 (designed binder)
chain: B1 chain with H47E, L49Y, M82L, S85V, I87T
B25: CD71-binding FN3 domain of SEQ ID NO: 469 (designed binder)
chain: B1 chain with L49Y, M82L, S85V, I87T
B26: CD71-binding FN3 domain of SEQ ID NO: 451 (designed binder)
chain: B1 chain with H47G, M82I, S85V, I87D
B27: CD71-binding FN3 domain of SEQ ID NO: 447 (designed binder)
chain: B1 chain with H47Y, L49Y, M82Y, S85T, I87Q
B28: CD71-binding FN3 domain of SEQ ID NO: 462 (designed binder)
chain: B1 chain with L49Q, M82V, S85H, I87R
B29: CD71-binding FN3 domain of SEQ ID NO: 464 (designed binder)
chain: B1 chain with H47Q, L49F, M82T, S85V, I87S

target: T1, human CD71 extracellular domain (human, UniProt P02786 89-760, biotinylated); test: primary ELISA, RLU over HSA
T1 construct: also called hCD71; CD71-ECD
T1 sequence (P02786 89-760): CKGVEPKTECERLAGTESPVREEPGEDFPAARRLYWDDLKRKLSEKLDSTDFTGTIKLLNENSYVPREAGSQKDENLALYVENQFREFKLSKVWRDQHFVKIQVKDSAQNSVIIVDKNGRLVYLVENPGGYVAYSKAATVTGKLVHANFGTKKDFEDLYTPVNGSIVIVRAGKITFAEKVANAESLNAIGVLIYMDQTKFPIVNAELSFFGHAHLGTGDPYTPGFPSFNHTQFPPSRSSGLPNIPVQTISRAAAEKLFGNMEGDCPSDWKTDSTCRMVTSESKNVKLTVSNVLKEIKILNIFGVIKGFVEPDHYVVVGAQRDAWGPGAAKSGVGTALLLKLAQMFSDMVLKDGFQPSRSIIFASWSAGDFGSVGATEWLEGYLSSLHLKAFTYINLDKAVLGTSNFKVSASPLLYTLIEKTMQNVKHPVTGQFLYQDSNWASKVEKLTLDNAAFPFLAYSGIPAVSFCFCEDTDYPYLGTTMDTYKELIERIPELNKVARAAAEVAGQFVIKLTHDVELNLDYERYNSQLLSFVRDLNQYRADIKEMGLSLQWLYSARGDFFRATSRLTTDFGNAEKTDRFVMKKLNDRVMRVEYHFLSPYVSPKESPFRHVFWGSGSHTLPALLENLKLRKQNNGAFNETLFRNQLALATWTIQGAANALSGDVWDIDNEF

hCD71:HSA | Binder
178 | B1
312 | B2
166 | B3
56 | B4
129 | B5
101 | B6
69 | B7
142 | B8
37 | B9
206 | B10
74 | B11
191 | B12
88 | B13
143 | B14
88 | B15
226 | B16
302 | B17
117 | B18
79 | B19
27 | B20
816 | B21
51 | B22
262 | B23
162 | B24
73 | B25
129 | B26
152 | B27
76 | B28
140 | B29

target: T2, apical domain of human CD71 (human, UniProt P02786 189-383, limits assumed); test: primary ELISA, RLU over HSA
T2 construct: domain: apical domain; Screen 4 panned on human apical domains, the ELISA text says only 'apical domain'
T2 sequence (P02786 189-383 limits assumed): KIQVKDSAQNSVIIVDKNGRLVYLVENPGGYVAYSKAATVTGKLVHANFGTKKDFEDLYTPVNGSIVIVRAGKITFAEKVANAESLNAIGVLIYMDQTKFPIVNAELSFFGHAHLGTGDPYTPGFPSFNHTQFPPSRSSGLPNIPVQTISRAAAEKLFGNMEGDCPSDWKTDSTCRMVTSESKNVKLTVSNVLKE

Apical domain:HSA | Binder
245 | B1
279 | B2
253 | B3
61 | B4
138 | B5
94 | B6
66 | B7
147 | B8
42 | B9
373 | B10
74 | B11
199 | B12
91 | B13
148 | B14
71 | B15
227 | B16
289 | B17
166 | B18
152 | B19
45 | B20
803 | B21
53 | B22
215 | B23
178 | B24
75 | B25
151 | B26
136 | B27
88 | B28
160 | B29

target: T1, human CD71 extracellular domain; test: primary ELISA; further: test concentration or dose not given here

RLU [RLU] | Binder
3.52e+06 | B1
3.04e+06 | B2
4.1e+06 | B3
5.39e+06 | B4
3.86e+06 | B5
3.46e+06 | B6
6.75e+06 | B7
4.95e+06 | B8
4.75e+06 | B9
2.66e+06 | B10
4.73e+06 | B11
2.5e+06 | B12
2.91e+06 | B13
2.69e+06 | B14
5.24e+06 | B15
4.18e+06 | B16
4.5e+06 | B17
3.77e+06 | B18
2.47e+06 | B19
1.18e+06 | B20
3.71e+06 | B21
5.54e+06 | B22
4.15e+06 | B23
4.52e+06 | B24
5.4e+06 | B25
5.23e+06 | B26
5.86e+06 | B27
2.83e+06 | B28
4.94e+06 | B29

target: T2, apical domain of human CD71; test: primary ELISA; further: test concentration or dose not given here

RLU [RLU] | Binder
4.83e+06 | B1
2.72e+06 | B2
6.26e+06 | B3
5.9e+06 | B4
4.15e+06 | B5
3.21e+06 | B6
6.51e+06 | B7
5.12e+06 | B8
5.51e+06 | B9
4.83e+06 | B10
4.76e+06 | B11
2.61e+06 | B12
3.03e+06 | B13
2.8e+06 | B14
4.23e+06 | B15
4.2e+06 | B16
4.31e+06 | B17
5.35e+06 | B18
4.74e+06 | B19
2e+06 | B20
3.65e+06 | B21
5.78e+06 | B22
3.4e+06 | B23
4.97e+06 | B24
5.56e+06 | B25
6.08e+06 | B26
5.25e+06 | B27
3.28e+06 | B28
5.68e+06 | B29
